According to US20070244048A1 (published 2007):
Non-standard residues stand in square brackets, D forms with d. No end group written: not given here. *: point of attachment. (PEG)2 40 kDa = branched PEG of 40 kDa linked via the Cys side-chain thiol (code C2 = Cys(PEG)2 40 kDa); Succinimide(1-Et,3-yl) = CCN1C(=O)CC(*)C1=O; Palmitoyl = CCCCCCCCCCCCCCCC(=O)*; hArg = N=C(N)NCCCC[C@H](N)C(=O)O

B1: neuromedin U receptor agonist I (peptide)
peptide: FWLFRP[hArg]N-NH2
modifications: N-terminus assumed
SMILES: CC(C)C[C@H](NC(=O)[C@H](Cc1c[nH]c2ccccc12)NC(=O)[C@@H](N)Cc1ccccc1)C(=O)N[C@@H](Cc1ccccc1)C(=O)N[C@@H](CCCNC(=N)N)C(=O)N1CCC[C@H]1C(=O)N[C@@H](CCCCNC(=N)N)C(=O)N[C@@H](CC(N)=O)C(N)=O
B2: neuromedin U receptor agonist J (peptide)
peptide: FWLFRA[hArg]N-NH2
modifications: N-terminus assumed
SMILES: CC(C)C[C@H](NC(=O)[C@H](Cc1c[nH]c2ccccc12)NC(=O)[C@@H](N)Cc1ccccc1)C(=O)N[C@@H](Cc1ccccc1)C(=O)N[C@@H](CCCNC(=N)N)C(=O)N[C@@H](C)C(=O)N[C@@H](CCCCNC(=N)N)C(=O)N[C@@H](CC(N)=O)C(N)=O
B3: NMU19 (peptide)
peptide: Ac-C(Succinimide(1-Et,3-yl))FQSPFASQSRGYFLFRPRN-NH2
SMILES: CCN1C(=O)CC(SC[C@H](NC(C)=O)C(=O)N[C@@H](Cc2ccccc2)C(=O)N[C@@H](CCC(N)=O)C(=O)N[C@@H](CO)C(=O)N2CCC[C@H]2C(=O)N[C@@H](Cc2ccccc2)C(=O)N[C@@H](C)C(=O)N[C@@H](CO)C(=O)N[C@@H](CCC(N)=O)C(=O)N[C@@H](CO)C(=O)N[C@@H](CCCNC(=N)N)C(=O)NCC(=O)N[C@@H](Cc2ccc(O)cc2)C(=O)N[C@@H](Cc2ccccc2)C(=O)N[C@@H](CC(C)C)C(=O)N[C@@H](Cc2ccccc2)C(=O)N[C@@H](CCCNC(=N)N)C(=O)N2CCC[C@H]2C(=O)N[C@@H](CCCNC(=N)N)C(=O)N[C@@H](CC(N)=O)C(N)=O)C1=O

Assays:
human NMUR1 [1] = molecular target: T1, human NMUR1 (human, UniProt Q9HB89 1-426); experiment: cell-based or functional assay
T1 sequence (looked up): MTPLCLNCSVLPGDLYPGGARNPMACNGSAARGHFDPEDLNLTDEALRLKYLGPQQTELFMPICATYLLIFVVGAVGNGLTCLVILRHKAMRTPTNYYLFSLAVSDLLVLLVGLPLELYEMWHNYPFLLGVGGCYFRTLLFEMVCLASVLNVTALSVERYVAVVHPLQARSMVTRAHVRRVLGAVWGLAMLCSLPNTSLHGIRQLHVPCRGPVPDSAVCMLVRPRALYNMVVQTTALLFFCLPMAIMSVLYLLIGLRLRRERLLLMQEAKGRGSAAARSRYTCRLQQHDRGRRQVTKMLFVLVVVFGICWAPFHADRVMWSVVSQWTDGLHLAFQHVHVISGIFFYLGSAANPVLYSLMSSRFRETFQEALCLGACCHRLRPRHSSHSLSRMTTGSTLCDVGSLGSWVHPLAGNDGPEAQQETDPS

human NMUR2 [2] = molecular target: T2, human NMUR2 (human, UniProt Q9GZQ4 1-415); experiment: cell-based or functional assay
human NMUR1 [3] = molecular target: T1, human NMUR1; experiment: 125I-hNMU-25 displacement, HEK cell membranes
Procedure: (§1) Confluent cell monolayers expressing NMU receptors (the HEK cells described above) were harvested with phosphate buffered saline, collected by centrifugation, and resuspended in membrane buffer (50 mM TrisCl pH 7.4, 5 mM MgCl₂, 1× Protease Inhibitor Cocktail, 10 μM phosphoramidon). After the cell pellet was homogenized, the solution was centrifuged at 18,000 rpm for 20 minutes at 4° C. The pellet was resuspended in membrane buffer to yield a final concentration of 0.5-5 μg/μL of membrane and stored at −80° C.
(§2) Experiments were performed in assay buffer (25 mM TrisCl, pH 7.4, 10 mM MgCl₂, 2mM EDTA, 1× Protease Inhibitor Cocktail, 100 μg/mL Bacitricin, 10 μM phosphoramidon) in 200 μL volumes in a 96-well format using 2-5 μg of membrane and […] ¹²⁵I-hNMU-25 (about 12,000 cpm/well). For non-specific binding, 1 μM hNMU-25 was added. About 5 μL of peptides were added to measure antagonist activity, and the entire reaction was incubated at room temperature with shaking for 80 minutes. The reaction was terminated by rapid filtration through 0.3% poly-ethylenimine presoaked Millipore 96-well filter plates and washed with ice-cold buffer (5 mM TrisCl pH 7.4, 10 mM MgCl₂, 2.5 mM EDTA, 0.04% Triton X-100). Plates were air-dried overnight at room temperature and recovered radioactivity was determined by standard scintillation counting. IC₅₀ values were determined using GraphPad Prism software.
(§3) Concentration-response curves and radioligand-binding data were fitted using Prism (GraphPad Software). Results are summarized below in Tables 8 and 9.

human NMUR2 [4] = molecular target: T2, human NMUR2; experiment: 125I-hNMU-25 displacement, HEK cell membranes
Procedure: as §1, §2, §3

rat NMUR1-ATG = molecular target: T3, rat NMUR1-ATG (rat, UniProt Q9JJI5 1-425); experiment: cell-based or functional assay
T3 sequence (looked up): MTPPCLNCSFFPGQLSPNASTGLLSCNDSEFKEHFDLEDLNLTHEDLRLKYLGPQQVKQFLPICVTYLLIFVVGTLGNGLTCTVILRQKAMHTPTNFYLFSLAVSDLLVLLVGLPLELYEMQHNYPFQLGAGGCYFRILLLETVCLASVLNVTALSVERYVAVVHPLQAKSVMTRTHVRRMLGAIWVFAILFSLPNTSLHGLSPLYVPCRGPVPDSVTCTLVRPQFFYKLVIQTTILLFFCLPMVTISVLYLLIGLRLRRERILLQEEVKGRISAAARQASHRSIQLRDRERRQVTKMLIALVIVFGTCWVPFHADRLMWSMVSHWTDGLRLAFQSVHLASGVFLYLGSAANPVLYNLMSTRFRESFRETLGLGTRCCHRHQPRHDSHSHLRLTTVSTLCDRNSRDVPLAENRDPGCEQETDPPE

rat NMUR2 = rat NMUR2 (rat, UniProt Q9ESQ4 1-395); experiment: cell-based or functional assay
rat NMUR1-TTG = molecular target: T4, rat NMUR1-TTG (rat, UniProt Q9JJI5 1-425); experiment: cell-based or functional assay
T4 sequence (looked up): T3 sequence (looked up)

mouse NMUR1-CTG = molecular target: T5, mouse NMUR1-CTG (mouse, UniProt O55040 1-428); experiment: cell-based or functional assay
T5 sequence (looked up): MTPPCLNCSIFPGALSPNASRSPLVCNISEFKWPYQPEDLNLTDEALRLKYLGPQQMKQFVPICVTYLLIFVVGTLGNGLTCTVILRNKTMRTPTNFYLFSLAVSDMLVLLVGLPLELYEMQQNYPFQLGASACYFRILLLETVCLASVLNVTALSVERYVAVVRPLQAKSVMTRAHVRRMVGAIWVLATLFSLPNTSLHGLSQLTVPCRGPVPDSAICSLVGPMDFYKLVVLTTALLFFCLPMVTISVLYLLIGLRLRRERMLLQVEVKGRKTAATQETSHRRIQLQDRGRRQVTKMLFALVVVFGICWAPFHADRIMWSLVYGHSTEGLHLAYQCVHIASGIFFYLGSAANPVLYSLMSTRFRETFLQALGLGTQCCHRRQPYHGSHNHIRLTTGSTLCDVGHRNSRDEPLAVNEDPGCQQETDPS

mouse NMUR1-ATG = molecular target: T6, mouse NMUR1-ATG (mouse, UniProt O55040 1-428); experiment: cell-based or functional assay
T6 sequence (looked up): T5 sequence (looked up)

mouse NMUR2 = mouse NMUR2 (mouse, UniProt Q8BZ39 1-395); experiment: cell-based or functional assay
human NMUR1 [5] = molecular target: T1, human NMUR1; experiment: cell-based or functional assay; remark: listed apart in the source
human NMUR2 [6] = molecular target: T2, human NMUR2; experiment: cell-based or functional assay; remark: listed apart in the source

Chain of rat NMUR2 (Q9ESQ4 whole entry): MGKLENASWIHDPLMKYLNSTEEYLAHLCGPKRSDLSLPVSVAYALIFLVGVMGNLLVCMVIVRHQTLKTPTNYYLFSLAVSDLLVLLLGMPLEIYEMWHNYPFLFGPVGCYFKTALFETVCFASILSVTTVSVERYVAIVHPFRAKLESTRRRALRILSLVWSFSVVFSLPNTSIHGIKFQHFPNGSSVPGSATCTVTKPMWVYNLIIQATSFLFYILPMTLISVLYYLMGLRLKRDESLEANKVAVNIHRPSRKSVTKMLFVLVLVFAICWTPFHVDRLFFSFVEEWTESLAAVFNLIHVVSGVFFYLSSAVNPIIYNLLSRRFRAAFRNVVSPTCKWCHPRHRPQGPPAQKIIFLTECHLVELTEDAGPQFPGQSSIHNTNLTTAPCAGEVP
Chain of mouse NMUR2 (Q8BZ39 whole entry): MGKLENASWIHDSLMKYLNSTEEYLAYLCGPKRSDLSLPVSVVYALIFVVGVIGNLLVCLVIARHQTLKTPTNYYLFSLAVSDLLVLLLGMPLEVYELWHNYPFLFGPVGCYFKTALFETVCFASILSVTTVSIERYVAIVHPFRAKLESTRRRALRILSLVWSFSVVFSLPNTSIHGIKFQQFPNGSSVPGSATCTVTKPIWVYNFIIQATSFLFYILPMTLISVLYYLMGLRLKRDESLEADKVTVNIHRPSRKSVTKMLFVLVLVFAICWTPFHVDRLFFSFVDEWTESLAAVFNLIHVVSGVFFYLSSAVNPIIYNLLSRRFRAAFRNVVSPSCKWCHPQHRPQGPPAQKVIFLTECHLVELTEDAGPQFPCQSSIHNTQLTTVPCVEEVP
T2 sequence (Q9GZQ4 whole entry): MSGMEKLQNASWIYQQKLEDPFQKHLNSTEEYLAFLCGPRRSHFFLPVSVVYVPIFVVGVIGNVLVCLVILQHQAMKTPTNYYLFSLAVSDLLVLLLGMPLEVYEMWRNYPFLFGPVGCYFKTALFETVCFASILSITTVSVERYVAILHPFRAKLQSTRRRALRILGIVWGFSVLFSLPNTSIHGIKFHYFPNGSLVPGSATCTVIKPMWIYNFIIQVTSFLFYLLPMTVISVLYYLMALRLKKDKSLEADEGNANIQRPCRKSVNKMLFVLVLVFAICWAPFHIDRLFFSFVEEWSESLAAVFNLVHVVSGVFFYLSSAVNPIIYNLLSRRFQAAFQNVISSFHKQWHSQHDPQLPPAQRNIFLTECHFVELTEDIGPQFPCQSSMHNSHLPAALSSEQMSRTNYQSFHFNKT

Binder	% activity (human NMUR1 [1])	EC50 (human NMUR1 [1])	% activity (human NMUR2 [2])	EC50 (human NMUR2 [2])	% Activity (FLIPR) (rat NMUR1-ATG)	EC50 (FLIPR) (rat NMUR1-ATG)	% Activity (FLIPR) (rat NMUR2)	EC50 (FLIPR) (rat NMUR2)	% Activity (FLIPR) (rat NMUR1-TTG)	EC50 (FLIPR) (rat NMUR1-TTG)	% Activity (FLIPR) (mouse NMUR1-CTG)	EC50 (FLIPR) (mouse NMUR1-CTG)	% Activity (FLIPR) (mouse NMUR1-ATG)	EC50 (FLIPR) (mouse NMUR1-ATG)	% Activity (FLIPR) (mouse NMUR2)	EC50 (FLIPR) (mouse NMUR2)	% Activity (FLIPR) (human NMUR1 [5])	EC50 (FLIPR) (human NMUR1 [5])	% Activity (FLIPR) (human NMUR2 [6])	EC50 (FLIPR) (human NMUR2 [6])	also measured
B1	7%	> 1 µM	99%	0.01 µM	–	–	–	–	–	–	–	–	–	–	–	–	–	–	–	–	% activity (binding) (human NMUR1 [3]): 23%; % activity (binding) (human NMUR2 [4]): 90%; IC50 (human NMUR2 [4]): 0.0091 µM
B2	0%	> 1 µM	59%	0.16 µM	–	–	–	–	–	–	–	–	–	–	–	–	–	–	–	–	% activity (binding) (human NMUR1 [3]): 34%; % activity (binding) (human NMUR2 [4]): 63%; IC50 (human NMUR2 [4]): 0.15 µM
Ac-C(Succinimide(1-Et,3-yl))C(Succinimide(1-Et,3-yl))FRVDEEFQSPFASQSRGYFLFRPRN-NH2 [NMU22]	–	–	–	–	100%	0.014 µM	98.8%	0.0171 µM	96.4%	0.0391 µM	100%	0.0435 µM	100%	0.0062 µM	100%	0.0069 µM	95.6%	0.0102 µM	105%	0.0065 µM	–
Palmitoyl-C(Succinimide(1-Et,3-yl))FRVDEEFQSPFASQSRGYFLFRPRN-NH2 [NMU24]	–	–	–	–	80.8%	0.236 µM	52.2%	0.986 µM	67.7%	0.222 µM	56.1%	0.591 µM	81.4%	1 µM	82.4%	1 µM	34.4%	1 µM	63.9%	1 µM	–
B3	–	–	–	–	100%	0.0068 µM	100%	0.0087 µM	100%	0.0128 µM	111%	0.0225 µM	100%	0.0079 µM	100%	0.0056 µM	95.9%	0.0389 µM	105%	0.0115 µM	–
FALFRPRN-NH2 [neuromedin U receptor agonist N]	87%	0.053 µM	100%	0.0039 µM	–	–	–	–	–	–	–	–	–	–	–	–	–	–	–	–	% activity (binding) (human NMUR1 [3]): 38.4%; % activity (binding) (human NMUR2 [4]): 100%; IC50 (human NMUR2 [4]): 0.022 µM
Ac-C(PEG 20 kDa)FRVDEEFQSPFASQSRGYFLFRPRN-NH2 [NMU21]	–	–	–	–	99.9%	0.0195 µM	99.2%	0.007 µM	77.5%	0.22 µM	90.8%	0.0563 µM	100%	0.0091 µM	100%	0.0016 µM	93.2%	0.0145 µM	97.9%	0.0242 µM	–
Ac-C((PEG)2 40 kDa)FQSPFASQSRGYFLFRPRN-NH2 [NMU20]	–	–	–	–	100%	0.0072 µM	100%	0.0169 µM	93.8%	0.0244 µM	65.4%	0.48 µM	100%	0.0127 µM	100%	0.0148 µM	100%	0.0164 µM	100%	0.013 µM	–
Ac-C(PEG 20 kDa)C(PEG 20 kDa)FRVDEEFQSPFASQSRGYFLFRPRN-NH2 [NMU23]	–	–	–	–	76.4%	0.127 µM	90.2%	0.0474 µM	39.8%	1 µM	50.9%	0.77 µM	100%	0.014 µM	100%	0.0213 µM	66.9%	0.3 µM	71.7%	1 µM	–
